Test results published in patent publication US20090117111A1.

Target: FcγRIIIa on NK cells of V/F donors (both aa158 allotypes, V and F) (human)
Test: cell-based or functional assay

ED50 for lysis of the Daudi cell line (ADCC, purified NK cells, V/F donors) [nM]	Substance
0.002	monoclonal antibody CHIR-12.12
0.021	rituximab (Rituxan) (antibody)
